{"source": "paper PMC2577008", "about": "“The Transcriptional Repressor Protein NsrR Senses Nitric Oxide Directly via a [2Fe-2S] Cluster” (PLoS ONE, 2008)", "binders": {"B1": {"name": "NsrR from Streptomyces coelicolor ([2Fe-2S] NsrR) (natural protein, UniProt Q9L132 1-148, looked up)", "chain": "MRLTKFTDLALRSLMRLAVVRDGDEPLATREVAEVVGVPYTHAAKAITRLQHLGVVEARRGRGGGLTLTDLGRRVSVGWLVRELEGEAEVVDCEGDNPCPLRGACRLRRALRDAQEAFYAALDPLTVTDLVAAPTGPVLLGLTDRPSG", "notes": "NsrR (SCO7427), Rrf2 family transcriptional repressor of Streptomyces coelicolor; nsrR gene amplified from genomic DNA with primers from the start codon (CATATG...) to the stop codon (TCA... on the reverse primer); calculated monomer mass 15.9 kDa; Carries a [2Fe-2S] cluster as purified (on average 28% cluster incorporation); also called SCO7427; holo [2Fe-2S]; NsrR"}, "B2": {"name": "hmpA1 30 bp oligonucleotide (dsDNA)", "DNA 1": "CTAAAACACGAATATCATCTACCAATTAAG", "DNA 2": "CTTAATTGGTAGATGATATTCGTGTTTTAG"}, "B3": {"name": "Control oligonucleotide (nsrR coding sequence) (dsDNA)", "DNA 1": "CCGCCTGCAGGCCCTGGGTGTG", "DNA 2": "CACACCCAGGGCCTGCAGGCGG"}, "B4": {"name": "hmpA2 30 bp oligonucleotide (dsDNA)", "DNA 1": "GGAAAACAAGCATCTGAGATCCCAGTTCGG", "DNA 2": "CCGAACTGGGATCTCAGATGCTTGTTTTCC"}}, "key": {"[1]": {"target": "the molecule itself", "assay": "AUC; sedimentation equilibrium at 16,000, 18,000 and 20,000 rpm, absorbance at 260 nm; 10 uM monomeric NsrR with 2 uM 30 bp double-stranded oligonucleotide (hmpA2 or hmpA1 binding site); 50 mM Tris pH 8.0 (legend: pH 7.0), 100 mM NaCl, 1 mM dithiothreitol; one-component fit; the mass of the DNA-protein complex is measured"}, "[2Fe-2S] NsrR (holo) [2]": {"target": "T1, [2Fe-2S] NsrR (holo) (Streptomyces coelicolor, UniProt Q9L132 1-148)", "T1 sequence": "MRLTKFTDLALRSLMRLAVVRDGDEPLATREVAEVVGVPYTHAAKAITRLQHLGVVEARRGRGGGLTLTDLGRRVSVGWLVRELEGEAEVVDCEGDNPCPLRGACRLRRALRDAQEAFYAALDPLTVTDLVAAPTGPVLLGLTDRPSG", "assay": "analytical ultracentrifugation (sedimentation equilibrium); [2Fe-2S] cluster; 2 uM DNA, 10 uM NsrR; mass 45.0 kDa with NsrR; EMSA: 10 mM Tris-HCl pH 7.5, 60 mM KCl, on ice 2 min, ~20 ng probe, NsrR diluted to 500 nM in 50 mM Tris pH 7.0 (legend: 50 mM Tris pH 7.0, 100 mM NaCl); AUC: 5", "conditions": "protein: recombinant; tags: none stated (pET21a; reverse primer includes the stop codon); chain copies: 2; blunt"}, "[2Fe-2S] NsrR (holo) [3]": {"target": "T1, [2Fe-2S] NsrR (holo)", "assay": "analytical ultracentrifugation (sedimentation equilibrium); [2Fe-2S] cluster; 2 uM DNA, 10 uM NsrR; EMSA: 10 mM Tris-HCl pH 7.5, 60 mM KCl, on ice 2 min, ~20 ng probe, NsrR diluted to 500 nM in 50 mM Tris pH 7.0 (legend: 50 mM Tris pH 7.0, 100 mM NaCl); AUC: 5", "conditions": "protein: recombinant; tags: none stated (pET21a; reverse primer includes the stop codon); chain copies: 2; blunt"}, "[2Fe-2S] NsrR (holo) [4]": {"target": "T1, [2Fe-2S] NsrR (holo)", "assay": "analytical ultracentrifugation (sedimentation equilibrium); [2Fe-2S] cluster; 2 uM DNA, 10 uM NsrR; mass 17.4 to 47.3 kDa, homodimer; EMSA: 10 mM Tris-HCl pH 7.5, 60 mM KCl, on ice 2 min, ~20 ng probe, NsrR diluted to 500 nM in 50 mM Tris pH 7.0 (legend: 50 mM Tris pH 7.0, 100 mM NaCl); AUC: 5", "conditions": "protein: recombinant; tags: none stated (pET21a; reverse primer includes the stop codon); chain copies: 2; blunt"}}}
{"binder": "B1", "values": [{"measurement": "stoichiometry N", "setting": "[1]", "result": 2}]}
{"binder": "B2", "values": [{"measurement": "binding result", "setting": "[2Fe-2S] NsrR (holo) [2]", "result": "binds"}]}
{"binder": "B3", "values": [{"measurement": "binding result", "setting": "[2Fe-2S] NsrR (holo) [3]", "result": "no binding"}]}
{"binder": "B4", "values": [{"measurement": "binding result", "setting": "[2Fe-2S] NsrR (holo) [4]", "result": "binds"}]}
